Assays:
Assay in all cases: BLI
Details in all cases: none stated (T7 transcript); 3' end periodate-oxidised for biotin hydrazide; BLI (Octet RED96), biotin-tRNA on streptavidin tips: 50 mM Tris-HCl pH 8.0, 150 mM NaCl, 0.002% Tween-20, 25 C; 1:1 model
[1] = test system: OSGEPL1 (mature, delta-MTS) (Homo sapiens)
[2] = test system: OSGEPL1-K203A (Homo sapiens)
[3] = test system: OSGEPL1-K203E (Homo sapiens)
[4] = test system: OSGEPL1-K203Q (Homo sapiens)
[5] = test system: OSGEPL1-K203R (Homo sapiens)
[6] = test system: OSGEPL1-K299Q (Homo sapiens)

Row | Substance | Kd [1] | Kd [2] | Kd [3] | Kd [4] | Kd [5] | Kd [6]
1 | hmtRNAThr-U34G | 4.1 µM |  |  |  |  | 
2 | hmtRNAThr-U34C | 5.5 µM |  |  |  |  | 
3 | hmtRNAThr | 6.7 µM | 29 µM | 8.5 µM | 14 µM | 3.6 µM | 6.8 µM

— paper PMC7102964
